Positions count from the first letter of the chain named. Read-outs that look alike come from different tables or passages of the source. Ends that are not written are not given here.
B1: BAv9-1-5L-pIg22 (Fc fusion, human)
chain: AGQCSQNEYFDHLIRACIPCQLRCSSNTPPLTCQRYCNAGVTNSVGGGGS
modifications: not fully specified (C-terminus); cysteine pairing not given here; also: terminal Fc lysine may be cleaved off ([K278]del)
notes: domain: Fc; terminal lysine may be cleaved off; also called BAv9-1-5L-pIg22 [K278]del; not shown: PIg22: chimeric Fc, CH2 domain of PIg18 (human IgG2 derivative) and CH3 domain of human IgG1
B2: BAv67-Ig (Fc fusion)
chain: AGQCSQNEYFDSLVRACQPCQVRCSSNTPPLTCQRYCNAGVTNSVKGTNA
notes: not shown: PIg18: human IgG2 Fc, Ser at Fc positions 4, 5, 11 (native Cys)
B3: BAv49-Ig (Fc fusion)
chain: B2 chain with S12P, V14I, Q18I
notes: also called BAv49 (3)-Ig; BAv49-pIg18; not shown: PIg18: human IgG2 Fc, Ser at Fc positions 4, 5, 11 (native Cys)
B4: BAv81-Ig (Fc fusion)
chain: B2 chain with S12P, Q18I
notes: also called BAv81 (2)-Ig; BAv81-pIg18; not shown: PIg18: human IgG2 Fc, Ser at Fc positions 4, 5, 11 (native Cys)
B5: BAv9-1K46G-pIg22 (Fc fusion, human)
chain: B1 chain with G48T, G49N, S50A
notes: domain: Fc; not shown: PIg22: chimeric Fc, CH2 domain of PIg18 (human IgG2 derivative) and CH3 domain of human IgG1
B6: BAv83-Ig (Fc fusion)
chain: B2 chain with S12P, Q18I, V22I
notes: also called BAv83 (2)-Ig; BAv83-pIg18; not shown: PIg18: human IgG2 Fc, Ser at Fc positions 4, 5, 11 (native Cys)

Legend:
[1] = target: T1, FLAG-tagged recombinant human APRIL (human, UniProt O75888 105-250); test: KinExA
T1 construct: KINEXA ligand; also called huAPRIL
T1 sequence: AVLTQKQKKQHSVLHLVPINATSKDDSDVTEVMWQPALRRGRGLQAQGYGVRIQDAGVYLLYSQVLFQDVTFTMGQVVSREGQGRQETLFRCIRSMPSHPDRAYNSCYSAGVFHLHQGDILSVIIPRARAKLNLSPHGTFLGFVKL
Experimental: (§1) Equilibrium measurements were performed using FLAG-tagged, recombinant huBAFF and huAPRIL ligands. Fixed ligand concentrations of human BAFF or human APRIL were incubated with serial dilutions of the variant BCMA ECD-Ig fusion polypeptides, and free ligand was detected in a KINEXA 3200 Instrument. variant BCMA ECD-Ig fusion polypeptides were first diluted in equilibration buffer (1×PBS, pH 7.4, 1 mg/ml BSA) to a range of concentrations from 10 nM to 100 fM. The linear portion of the dilution series was typically 2-fold. Ligands were diluted in equilibration buffer to fixed concentrations ranging from 5 to 20 pM and then incubated with the variant BCMA-Ig dilutions in total reaction volumes ranging from 4.5 to 15 ml. Samples were incubated at room temperature for 48-72 hours to reach equilibrium. For each data point, a fresh column of 850 μl of bead slurry coated with Variant BAv-238475-Ig was introduced into the KINEXA flow cell. Equilibrated samples ranging from 1 to 5 ml reaction volume were injected at a flow rate of 0.25 ml/min. […] The DyLight 649 fluorescent signal was detected using the red filter set (620/30 nanometer excitation filter, 670/40 nanometer emission filter, 645 nanometer dichroic filter) on the KinExA instrument and converted to a voltage signal that was directly proportional to the concentration of free ligand in the equilibrated sample.
(§2) The various fusion proteins described above were expressed and purified as described previously (Examples 2 and 3 for the CET1019AS based plasmids and Examples 7 and 8 for the pcDNA based plasmids). […] The BAv9-1-Ig Fc proteins typically exist in solution as a dimeric fusion protein. The purified fusion proteins were assayed for binding activity using BIACORE (Example 9) and KINEXA (Example 11) assays.

FLAG-tagged human BAFF [2] = target: T2, FLAG-tagged human BAFF (human, UniProt Q9Y275 134-285, limits assumed); test: KinExA
T2 construct: used in BIACORE (Ex. 9) and KINEXA (Ex. 11); also called huBAFF
Experimental: as §1, §2

[3] = target: T3, FLAG-tagged cynomolgous APRIL (cynomolgus monkey, UniProt A0ACM8R0G4 110-250 (rhesus entry)); test: BIACORE SPR
T3 construct: FLAG-tagged, expressed with TPA signal peptide; also called cyAPRIL
T3 sequence: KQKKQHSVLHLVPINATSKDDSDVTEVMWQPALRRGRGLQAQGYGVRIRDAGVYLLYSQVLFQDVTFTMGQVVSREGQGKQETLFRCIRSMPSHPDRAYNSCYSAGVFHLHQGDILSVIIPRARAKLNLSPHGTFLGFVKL
Experimental: (§3) For human BAFF, cynomolgus monkey APRIL, and mouse APRIL measurements, mouse monoclonal antibody (IgG1) anti-FLAG M2 (Sigma Aldrich, Cat. No. F1804) was immobilized on CM3 sensor chips (GE Healthcare, Cat. No. BR-1005-41) according to the manufacturer's protocol. Antibody was diluted to 30 μg/ml in immobilization buffer (10 mM pH 5±0.20; GE Healthcare; GE Healthcare, Catalog No. BR-1003-51). […] Unreacted sites were quenched with 35 μl of 1M ethanolamine-HCl, pH 8.5 (GE Healthcare, GE Healthcare, Cat. No. BR-1000-50). This procedure typically yielded 3,000-4,000 response units (RU) of coupled antibody.
(§4) The fusion polypeptides were diluted in HBS-EP buffer and flowed over ligand-coated sensor chips. The variant BCMA-Ig and surrogate control fusion proteins were injected at three concentrations (1.5 nM, 15 nM, and 150 nM at 30 μl/min for 2 minutes per association phase) in a single binding cycle, followed by a 20 minute incubation with HBS-EP buffer containing no protein at the same flow rate. A similar protocol was followed for Z-TACI-Ig, except that the injections were at 4.5 nM, 45 nM, and 450 nM.
as §2

FLAG-tagged human BAFF [4] = target: T2, FLAG-tagged human BAFF; test: BIACORE SPR
Experimental: as §3, §4, §2

[5] = target: T3, FLAG-tagged cynomolgous APRIL; test: BIACORE SPR; NB = No binding
Experimental: as §3, §4
(§5) Using available information from the structures and published literature, several residues in BAv8-10 were targeted for substitution with conserved as well as non-conserved residues and their effect on BAFF and APRIL binding was assessed by BIACORE.

FLAG-tagged human BAFF [6] = target: T2, FLAG-tagged human BAFF; test: BIACORE SPR; NB = No binding
Experimental: as §3, §4, §5

[7] = target: T1, FLAG-tagged recombinant human APRIL; test: KinExA; remark: listed apart in the source
Experimental: as §1
(§6) The standard kinetic exclusion assays and data analyses described above were performed on protein preparations of various variant BCMA ECD-Ig fusion polypeptides, as well as Z-TACI-Ig and [S40G]huBCMA ECD-Ig fusion polypeptides. FIG. 8A, FIG. 8B, and Table 4 summarize the binding data for representative variant BCMA ECD-Ig polypeptides and controls in molar concentrations of huBAFF or huAPRIL determined by KINEXA binding assays.

FLAG-tagged human BAFF [8] = target: T2, FLAG-tagged human BAFF; test: KinExA; remark: listed apart in the source
Experimental: as §1, §6

[9] = target: T1, FLAG-tagged recombinant human APRIL; test: KinExA; remark: listed apart in the source
Experimental: as §1
(§7) Table 5 provides the selectivities of exemplary variant BCMA polypeptides with respect to BAFF and APRIL.

FLAG-tagged human BAFF [10] = target: T2, FLAG-tagged human BAFF; test: KinExA; remark: listed apart in the source
Experimental: as §1, §7

Binder	Kd [1]	Kd (FLAG-tagged human BAFF [2])	Kd [3]	Kd (FLAG-tagged human BAFF [4])	binding result [5]	binding result (FLAG-tagged human BAFF [6])	Kd [7]	fold improvement over control [7]	Kd (FLAG-tagged human BAFF [8])	fold improvement over control (FLAG-tagged human BAFF [8])	Selectivity for huAPRIL (KD BAFF/KD APRIL) [9]	Selectivity for huBAFF (KD APRIL/KD BAFF) (FLAG-tagged human BAFF [10])
B1	0.000611 nM	0.000864 nM	0.0418 nM	0.0165 nM	–	–	–	–	–	–	–	–
B2	–	–	–	–	no binding (tested: 150 nM)	no binding (tested: 150 nM)	–	–	–	–	–	–
B3	0.313 nM	0.000842 nM	1.45 nM	0.0162 nM	–	–	0.313 nM	0.00051 fold	0.000842 nM	268 fold	0.003 ratio	372 ratio
B4	0.364 nM	0.000246 nM	2.06 nM	0.00831 nM	–	–	0.364 nM	0.00044 fold	0.000246 nM	917 fold	0.001 ratio	1480 ratio
B5	0.00032 nM	0.000484 nM	0.0456 nM	0.0165 nM	–	–	–	–	–	–	–	–
B6	0.114 nM	0.000254 nM	0.707 nM	0.00809 nM	–	–	0.114 nM	0.0014 fold	0.000254 nM	890 fold	0.002 ratio	449 ratio
